According to patent publication US20200277405A1, “COMPOSITION FOR ANTIBODY-DRUG CONJUGATE DIRECTED AGAINST TUMOR-CELL ASSOCIATED POLYSIALIC ACID” (Cornell University, priority 2019, published 2020):

Key:
ST8SiaII KO SW2 cells = test: Flow cytometry binding to ST8SiaII knockout cells; format: cell-based, human
From the text: (§1) FIGS. 8A-8C depict binding of polySia-specific mAb to ST8SiaII and ST8SiaIV knockout cell lines. […] Data are the geometric mean fluorescence intensity (MFI), with the values reported as the average of three replicates and the error represented as the standard deviation of the mean. […] In the ST8SiaII KO SW2 cells, 73% of the population (FL1-H-) binds mo735 below the level of the wild-type SW2 cells. […] In the ST8SiaIV KO SW2 cells, 68% of the population (FL1-H-) binds mo735 below the level of the wild-type SW2 cells.
(§2) CRISPR guide RNAs targeting ST8SiaII (crRNA1: […]; SEQ ID NO: 5) and ST8Sia4 (crRNA1: […]; SEQ ID NO: 6) were purchased from Genscript in the pLentiCRISPR v2 vector. Knockout cell lines were generated in SW2 cells using protocols described by Zhang and colleagues (Shalem et al., “Genome-Scale CRISPR-Cas9 Knockout Screening in Human Cells,” Science 343:84-7 (2014), which is hereby incorporated by reference in its entirety). Briefly, after lentiviral transduction, cells were maintained under selection with 1 μg/mL puromycin for at least 14 days prior to analysis by flow cytometry.
(§3) Cancer cells were trypsinized and collected with media, followed by three washes in PBS. […] Cells were washed three times, resuspended in 500 μL of 0.5% BSA in PBS, and analyzed on a BD FACSCalibur flow cytometer using Cell Quest Pro software (BD Biosciences).

ST8SiaIV KO SW2 cells = test: Flow cytometry binding to ST8SiaIV knockout cells; format: cell-based, human
From the text: as §1, §2, §3

B1: mo735: well-known mouse-derived IgG2a monoclonal antibody 735 targeting polysialic acid (antibody, V domains shown)
VH: QIQLQQSGPELVRPGASVKISCKASGYTFTDYYIHWVKQRPGEGLEWIGWIYPGSGNTKYNEKFKGKATLTVDTSSSTAYMQLSSLTSEDSAVYFCARGGKFAMDYWGQGTSVTVSS
VL: DVVMTQTPLSLPVSLGDQASISCRSSQSLVHSNGNTYLYWYLQKPGQSPKPLIYRVSNRFSGVPDRFSGSGSGTDFTLKISRVEAEDLGVYFCFQGTHVPYTFGGGTRLEIK
population (FL1-H-) binding below the level of wild-type SW2 cells (ST8SiaII KO SW2 cells): 73%
population (FL1-H-) binding below the level of wild-type SW2 cells (ST8SiaIV KO SW2 cells): 68%
